According to patent US20060281901:

Molecular target: ubiquitin-amyloid-β peptide fusion protein (H6Ub-Aβ42)

B1: yeast ubiquitin hydrolase-1 (YUH-1) (protein)
chain: MSGENRAVVPIESNPEVFTNFAHKLGLKNEWAYFDIYSLTEPELLAFLPRPVKAIVLLFPINEDRKSSTSQQITSSYDVIWFKQSVKNACGLYAILHSLSNNQSLLEPGSDLDNFLKSQSDTSSSKNRFDDVTTDQFVLNVIKENVQTFSTGQSEAPEATADTNLHYITYVEENGGIFELDGRNLSGPLYLGKSDPTATDLIEQELVRVRVASYMENANEEDVLNFAMLGLGPNWE
Question: B1 was tested. Which “electrophoresis with Coomassie staining of the enzyme reactant (cleavage of the fusion protein by ubiquitin hydrolase)” value did it give?
Answer: the binding site between ubiquitin and amyloid-β peptide in the fusion protein is precisely cut by the action of ubiquitin hydrolase and the fusion protein is separated into a ubiquitin fragment and an amyloid-β peptide fragment
